In patent publication US20220347324A1 (Bristol-Myers Squibb, published 2022):

Columns and labels:
[1] = target: T1, human PD-L1 expressed on cells (hPD-L1-positive L2987 cells, L2987 xenografts, human lung tumor tissue) (human, UniProt Q9NZQ7 19-290); test: in vivo PET in mice with bilateral xenografts, last 10 min of a 2 h scan
T1 construct: whole, on cells; also called hPD-L1(+) L2987; PD-L1 positive cells L2987
Protocol: (§1) A 10-minute transmission image was first acquired using a ⁵⁷Co point source for the purpose of attenuation correction of the final PET images. Following the transmission scan, radiotracer solutions were administered via the previously installed tail vein catheters and a 2 hour emission image was acquired. […] All injections were formulated in 200 μL saline prior to injection. Exact injected doses were calculated by taking direct measurements of the formulated dose and subtracting the radioactivity remaining in the syringe and the tail vein catheter.
(§2) Images were reconstructed using a maximum a posteriori (MAP) algorithm with attenuation correction using the collected transmission images and corrected for radioisotope decay. In the final images, regions of interest (ROIs) were drawn around the tumor boundary using ASIPro software (Siemens Preclinical Solutions). Time-activity curves were calculated for each ROI to yield a quantitative view of radiotracer within the tumor volume over the course of the 2 hour emission image. For final comparison, individual time-activity curves were normalized based on the injected radiotracer dose for each specific animal. Radiotracer uptake was compared across tumors using the final 10 minutes of each time-activity curve (1 hour 50 minutes-2h post-radiotracer injection).

[2] = target: T1, human PD-L1 expressed on cells …; test: in vivo PET in mice, co-injected with 3 mg/kg unlabeled A02 Adnectin as competitor
Protocol: as §1, §2

[3] = target: T1, human PD-L1 expressed on cells …; test: in vivo PET in mice with bilateral xenografts
From the text: Briefly, nude mice were subcutaneously implanted bilaterally with HT-29 and L2987 cells. Once tumors reached approximately 200-300 mm³, animals were selected for imaging. Mice were anesthetized with 2% isoflurane in oxygen and placed onto the imaging bed of a Focus 120 PET imaging system (Siemens Preclinical Solutions). […] A 10-minute transmission image was then collected using a ⁵⁷Co point source for use as attenuation correction. Images were reconstructed using a 3D maximum a posteriori algorithm with attenuation correction using AsiPro software (Siemens Preclinical Solutions).

[4] = target: T1, human PD-L1 expressed on cells …; test: cell binding to human PD-L1 positive L2987 cells; Adnectin marked (Cys-Capped)
[5] = target: T1, human PD-L1 expressed on cells …; test: radiotracer cell binding, 1 h on ice, gamma counter
Protocol: After the incubation period, cell samples were centrifuged at 200×g and the supernatant was discarded. Cell pellets were resuspended in 1 mL PBS+0.5% BSA and the wash procedure repeated for a total of 3 washes. Following the final wash, cells were again centrifuged at 200×g and the supernatant was discarded. The radioactivity of the remaining cell pellets was then measured by gamma counter.

B1: 64Cu-A02-NODAGA (designed binder)
chain: GVSDVPRDLEVVAATPTSLLISWSYDGPIDRYYRITYGETGGNSPVQEFTVPPDQKTATISGLKPGVDYTITVYAVRLEEAHYNREFPISINYRTPC
modifications: C-terminal cysteine linked by maleimide to NODAGA chelating 64Cu
notes: A02 with C-terminal PC; also called NODAGA-64Cu-labeled A02 anti-PD-L1 Adnectin
B1 was tested, and the “radiotracer uptake, hPD-L1(+) L2987 xenografts against hPD-L1(-) HT-29 xenografts” value [1] was 3.05 fold and the “radiotracer uptake, hPD-L1(+) L2987 xenografts against hPD-L1(-) HT-29 xenografts, with cold competitor” value [2] was 1.04 fold.

B2: [18F]-A02-4PEG-DBCO-FPPEGA (designed binder)
chain: B1 chain
modifications: C-terminal cysteine linked to Maleamide-DBCO-FFP(18F)
notes: also called 18F-DBCO-A02 anti-PD-L1 Adnectin; ADX_5322_A02-Mal-DBCO-FFPF18
For B2, the “maximum radiotracer uptake ratio, hPD-L1(+) L2987 against hPD-L1(-) HT-29 xenografts” value [3] was 3.53 ratio.

B3: ADX_5322_A02 (designed binder)
chain: MGVSDVPRDLEVVAATPTSLLISWSYDGPIDRYYRITYGETGGNSPVQEFTVPPDQKTATISGLKPGVDYTITVYAVRLEEAHYNREFPISINYRTPCHHHHHH
notes: C-terminus NYRTPCH6
An EC50 [4] of 0.43 nM was found for B3 in this work.

B4: 64Cu-E01-NODAGA (designed binder)
chain: GVSDVPRDLEVVAATPTSLLISWRAQLSPSFYYRITYGETGGNSPVQEFTVPNDVMTATISGLKPGVDYTITVYAVTTHGVYFYSPISINYRTPC
modifications: C-terminal cysteine linked by maleimide to NODAGA chelating 64Cu
notes: E01 with C-terminal PC (ADX_5417_E01 w/ N leader and modified C-terminus); also called 64Cu-E01 anti-PD-L1 Adnectin
In the case of B4, the “fold cell associated radioactivity, hPD-L1-positive L2987 cells against hPD-L1-negative HT-29 cells” value [5] is reported as 44.6 fold.
